Results on 17 molecules are retold here after patent publication US20230330253A1 (LANOVA MEDICINES, published 2023).

Holding throughout (test): cell-based or functional assay
The target of experiment [1] is human claudin 18.2 (CLDN18.2) (human).
For experiment [2] the target is unchanged. The source holds these as a separate data set.
Experiment [3] has the same target. This is another data set of the same source.

B1: 120B7B2 chimeric antibody (antibody, V domains shown)
VH: EVQLQQSGPELVKPGASVKMSCKASGYTFTGYIIQWMKQKPGLGLEWIGFINPYNDGTKYNEQFKGKATLTSDKSSNAAYMELSSLTSEDSAVYYCARAYFGNSFAYWGQGTLVTVSA
VL: DIVMTQSPSSLTVTAGEKVTMSCKSSQSLLNSGNQKNYLTWYQQRPGQPPKLLMYWASTRESGVPDRFTGSGSGTDFTLTISSGQAEDLAIYFCQNGYYFPFTFGSGTKLETK
As for B1, the “EC50, ADCC Reporter Bioassay (luciferase, Jurkat FcγRIIIa V158/NFAT effector cells)” value in experiment [1] was found to be 0.00581 nM.

B2: 100F4G12 chimeric antibody (antibody, V domains shown)
VH: EVQLQQSGPELVKPGASVKMSCKASGYTFTGFLMHWVKQKPGQGLEWIGYINPYNDGTKYSERFKGKATLTSDKSSSTAYMELSSLTSDDSAVYYCARLDYGNAMDYWGQGTSVTVSS
VL: DIVMTQSPSSLTVTAGEKVTMRCKSTQSLLNSGNQRNYLTWYQQKPGQSPKLLIYWASTRESGVPERFTGSGSGTDFTLTISSVQAEDLAVYYCQNAYYYPLTFGPGTKLERK
Regarding B2, in experiment [2], the “Fluorescence, pHAb internalization on MKN45-CLDN18.2 cells, 20 nM antibody, normalized by DAR” value (“Fluorescence … 20 nM antibody, normalized by DAR” for short) was determined as 17100 and the “Fluorescence, pHAb internalization on MKN45-CLDN18.2 cells, 100 nM antibody, normalized by DAR” value stood at 33500.

B3: 72C1B6A3 chimeric antibody (antibody, V domains shown)
VH: QVQLQQSGGELVKPGASVKMSCKAFGYTFTTYPIEWMKQNHGKSLEWIGNFHPYNDDTKYNEKFKGKAKLTVEKSSSTVYLEVSRLTSDDSAVYYCARRAYGYPYAMDYWGQGTSVTVSS
VL: DIVMTQSPSSLTVTAGEKVTMSCKSSQSLLNSGNQKNYLTWYQQRPGQPPKLLIYRASSRESGVPVRFTGSGSGTDFTLTISSVQAEDLAVYYCQNDYIYPYTFGGGTKLEMN
Turning to B3, the “EC50, ADCC Reporter Bioassay (luciferase, Jurkat FcγRIIIa V158/NFAT effector cells)” value in experiment [1] turned out to be 0.0463 nM.

B4: 12F1F4 chimeric antibody (antibody, V domains shown)
VH: QVQLKESGPGLVAPSQSLSITCTVSGFSLINYGVSWVRQPPGKGLEWLGVIWGDGNTNYQSALRSRLSIRKDTSKSQVFLKLNSVHTDGTATYYCAKVGRGNAMDHWGQGISVIVSS
VL: DIVMTQSPSSLTVTARERVSMTCKSSQSLFNSGNQRNYLTWYQQKPGQPPKLLIYWSSTRESGVPDRFTGSGSGTDFTLTISSVQAEDLAIYFCQNNYYYPFTFGSGTKLEIK
As to B4, in experiment [2], the “Fluorescence … 20 nM antibody, normalized by DAR” value turned out to be 29500 and the “Fluorescence, pHAb internalization on MKN45-CLDN18.2 cells, 100 nM antibody, normalized by DAR” value is 43900. The “EC50, ADCC Reporter Bioassay (luciferase, Jurkat FcγRIIIa V158/NFAT effector cells)” value in experiment [1] was found to be 0.0368 nM.

B5: 64G11B4 chimeric antibody (antibody, V domains shown)
VH: QVQLHQSGTELVRPGTSVKVSCKASGYAFTNYLLEWVKQRPGQGLEWIGEINPGNGGSNYNEKFKGKATLTADKSSSTAYMQLSSLTSVDSAVYFCARIYYGNSFAYWGQGTLVTVSA
VL: DIVMTQSPSSLTVTAGEKVTMNCKSSQSLLNSGNQRNYLTWYQQKPGQPPKLLIYWASTRESGVPDRFTGSGSGTDFTLTISSVQADDLAVYYCQNDYFYPFTFGAGTNLELK
Take B5: in experiment [2], the “Fluorescence … 20 nM antibody, normalized by DAR” value was found to be 24000 and the “Fluorescence, pHAb internalization on MKN45-CLDN18.2 cells, 100 nM antibody, normalized by DAR” value was 33700. In experiment [1], the “EC50, ADCC Reporter Bioassay (luciferase, Jurkat FcγRIIIa V158/NFAT effector cells)” value came to 0.126 nM.

B6: 111E7E2 chimeric antibody (antibody, V domains shown)
VH: QVQLKESGPGLVAPSQSLSITCTVSGFSLTSYGAHWVRQPPGKGLEWLGVIWAGGSTNYDSALMSRLSISKDRSKSQVFLKMTSLQTDDTAMYYCARSLYGNSFDHWGQGTTLTVSS
VL: DIVMTQSPSSLTVTAGEKVTMSCKSSQSLFNSGNQKNYLTWYQQKPGQPPKLLIYWASTRESGVPDRFTGSGSGTDFTLTISSVQAEDLAVYYCQNNYIYPLAFGAGTKLELK
In the case of B6, in experiment [2], the “Fluorescence … 20 nM antibody, normalized by DAR” value was found to be 12300 and the “Fluorescence, pHAb internalization on MKN45-CLDN18.2 cells, 100 nM antibody, normalized by DAR” value stood at 28000.

B7: 111B12D11 chimeric antibody (antibody, V domains shown)
VH: QVQLKESGPGLVAPSQSLSITCTVSGFSLTSYGVHWVRQPPGKGLEWLGVIWAGGSTNYDSTLMSRLSISKDRSKSQVFLKMTSLQTDDTAMYYCARSLYGNSFDHWGQGTTLTVSS
VL: DIVMTQSPSSLTVTAGEKVTMRCRSSQSLFNSGNQRNYLTWYQQKPGQPPKLLIYWASTRESGVPDRFTGSGSGTDFTLTISSVQAEDLAVYYCQNNYIYPLAFGAGTKLELK
Turning to B7, in experiment [2], the “Fluorescence … 20 nM antibody, normalized by DAR” value turned out to be 15900 and the “Fluorescence, pHAb internalization on MKN45-CLDN18.2 cells, 100 nM antibody, normalized by DAR” value came to 37400.

B8: 103H2B4 chimeric antibody (antibody, V domains shown)
VH: QVQLQQPGAEPVKPGASVKLSCKASGYSFTNFLTHWVRQRPGQGLEWIGEINPTNGRTYYNEKFKRKATLTVDKSSTTVYMQLSNLTPEDSAVFYCARIYYGNSMDYWGQGTLVTVSA
VL: DILMTQSPSSLTVTAGEKVTMSCKSSQSLLNSGNQKNYLTWYQQKPGQSPKLLIYWASTRESGVPDRFTGSGSGTDFTLTISSVQAEDLAVYYCQNNYFYPLTFGVGTKLELK
For the molecule B8, in experiment [2], the “Fluorescence … 20 nM antibody, normalized by DAR” value is 23500 and the “Fluorescence, pHAb internalization on MKN45-CLDN18.2 cells, 100 nM antibody, normalized by DAR” value turned out to be 35800.

B9: 78E8G9G6 chimeric antibody (antibody, V domains shown)
VH: QVQLKESGPGLVAPSQSLSITCTVSGFSLISYGVHWVRQPPGKGLEWLGVIWAGGRTNYNSALMSRLSISKDNSKSQVFLKMNSLQTYDTAMYYCARDRYGGNSLDYWGQGTSVTVSS
VL: DIVMTQSPSSLTVTAGEKVTMNCRSIQSLLNSGNQKNYLSWYQQKPGQPPKLLIYWASTRESGVPDRFTGSGSGTDFTLTIRSVLDEDLAVYYCQNSYSYPFTFGSGTKLEMK
B9: in experiment [2], the “Fluorescence … 20 nM antibody, normalized by DAR” value was 26800 and the “Fluorescence, pHAb internalization on MKN45-CLDN18.2 cells, 100 nM antibody, normalized by DAR” value is 41100. Moreover, in experiment [1], the “EC50, ADCC Reporter Bioassay (luciferase, Jurkat FcγRIIIa V158/NFAT effector cells)” value came out at 0.0159 nM.

B10: 4F11E2 chimeric antibody (antibody, V domains shown)
VH: DVQLVESGGGLVQPGGSRKLSCAASGFTFSTFGMHWVRQAPEKGLEWVAYITSGNSPIYFTDTVKGRFTISRDNPKNTLFLQMTSLGSEDTAVYYCARSSYYGNSMDYWGQGTSVTVSS
VL: DIVMTQSPSSLTVTAGEKVTLTCRSSQSLLNSGNRKNYLTWYQQIPGQPPKLLIYWASTRESGVPDRFTGSGSGTYFTLTISSVQAEDLAVYYCQNAYSYPFTFGSGTKLEKK
Turning to B10, the “EC50, ADCC Reporter Bioassay (luciferase, Jurkat FcγRIIIa V158/NFAT effector cells)” value in experiment [1] was 0.0222 nM.

B11: 103F6D3 chimeric antibody (antibody, V domains shown)
VH: QVQLQQSGAELARPGASVKMSCKASGYTFPTYSIHWLKQGPGQGLEWIGYINPNTIYTNYNQKFKYKTTLTADKSSSTAYIQLSSLTSDDSAVYYCAREGYGRGNAMDYWGQGTSVTVSS
VL: DIVMTQSPSSQTVTAGEKVTLSCRSSQSLLNGGNQKNYLTWYQQKPGQPPKLLIYWASTRESGVPDRFTGSGSGTYFTFTISSVQAEDLAVYYCQNAYFYPFTFGAGTKLELK
Consider B11, for which, in experiment [2], the “Fluorescence … 20 nM antibody, normalized by DAR” value was 23000 and the “Fluorescence, pHAb internalization on MKN45-CLDN18.2 cells, 100 nM antibody, normalized by DAR” value amounted to 41300. For the same molecule, the “EC50, ADCC Reporter Bioassay (luciferase, Jurkat FcγRIIIa V158/NFAT effector cells)” value in experiment [1] worked out at 0.0795 nM.

B12: 85H12E8 chimeric antibody (antibody, V domains shown)
VH: QVQLKESGPGLVAPSQSLSITCTVSGFSLSNYGVSWVRQPPGKGLEWLGVIWAGGNTNYNSALMSRLRISKDNSKSQVFLKMNSLQTDDTARYYCARHGYGKGNAMDNWGQGTSVTVSS
VL: DIVMTQSPSSLTVTAGEKVTMNCKSSQSLLNSGNQRNYLSWYQQEPGQPPKLLIYWASTRESGVPDRFTGSGSGTDFTLTISNIQAEDLALYFCQNAYFYPFTFGSGTKLEIK
B12: in experiment [2], the “Fluorescence … 20 nM antibody, normalized by DAR” value was 19700 and the “Fluorescence, pHAb internalization on MKN45-CLDN18.2 cells, 100 nM antibody, normalized by DAR” value is 29100.

B13: 4F11E2 HC N55Q-LC S32A (humanized, PTM de-risked, No. 2) (antibody, V domains shown)
VH: EVQLVESGGGLVQPGGSLRLSCAASGFTFSTFGMHWVRQAPGKGLEWVSYITSGQSPIYFTDTVKGRFTISRDNAKNSLYLQMNSLRAEDTAVYYCARSSYYGNSMDYWGQGTLVTVSS
VL: DIVMTQSPDSLAVSLGERATINCRSSQSLLNAGNRKNYLTWYQQKPGQPPKLLIYWASTRESGVPDRFSGSGSGTDFTLTISSLQAEDVAVYYCQNAYSYPFTFGGGTKLEIK
For the molecule B13, in experiment [3], the “EC50, ADCC Reporter Bioassay (luciferase)” value (“EC50 … (luciferase)” for short) came to 0.414 nM.

B14: 4F11E2 HC N55Q-LC N31E (humanized, PTM de-risked, No. 1) (antibody, V domains shown)
VH: EVQLVESGGGLVQPGGSLRLSCAASGFTFSTFGMHWVRQAPGKGLEWVSYITSGQSPIYFTDTVKGRFTISRDNAKNSLYLQMNSLRAEDTAVYYCARSSYYGNSMDYWGQGTLVTVSS
VL: DIVMTQSPDSLAVSLGERATINCRSSQSLLESGNRKNYLTWYQQKPGQPPKLLIYWASTRESGVPDRFSGSGSGTDFTLTISSLQAEDVAVYYCQNAYSYPFTFGGGTKLEIK
Take B14: in experiment [3], the “EC50 … (luciferase)” value stood at 0.238 nM.

B15: 120B7B2 HC G57D&S104A-LC-N96E&N31E (humanized, PTM de-risked, No. 6) (antibody, V domains shown)
VH: QVQLVQSGAEVKKPGASVKVSCKASGYTFTGYIIQWVRQAPGQRLEWMGFINPYNDDTKYNEQFKGRVTITRDTSASTAYMELSSLRSEDTAVYYCARAYFGNAFAYWGQGTLVTVSS
VL: DIVMTQSPDSLAVSLGERATINCKSSQSLLESGNQKNYLTWYQQKPGQPPKLLIYWASTRESGVPDRFSGSGSGTDFTLTISSLQAEDVAVYYCQEGYYFPFTFGGGTKLEIK
For the molecule B15, the “EC50 … (luciferase)” value in experiment [3] was found to be 0.493 nM.

B16: 72C1B6A3 HC WT-LC N31E (humanized, PTM de-risked, No. 4) (antibody, V domains shown)
VH: QVQLVQSGAEVKKPGASVKVSCKASGYTFTTYPIEWVRQAPGQRLEWMGNFHPYNDDTKYNEKFKGRVTITRDTSASTAYMELSSLRSEDTAVYYCARRAYGYPYAMDYWGQGTLVTVSS
VL: DIVMTQSPDSLAVSLGERATINCKSSQSLLESGNQKNYLTWYQQKPGQPPKLLIYRASSRESGVPDRFSGSGSGTDFTLTISSLQAEDVAVYYCQNDYIYPYTFGGGTKLEIK
Regarding B16, the “EC50 … (luciferase)” value in experiment [3] came to 1.65 nM.

B17: 113E12F7 chimeric antibody (antibody, V domains shown)
VH: QVQLKESGPGLVAPSQSLSITCTVTGFSLSSYGVHWVRQPPGKGLEWLGVIWAGGSTNYDSALMSRLSISKDRSKSQVFLKMTSLQTDDTAMYYCARSLYGNSFDHWGQGTTLTVSS
VL: DIVMTQSPSSLTVTTGEKVTMSCKSSQSLFNSGNQKNYLTWYQQKPGQPPKLLIYWASTRESGVPDRFTGSGSGTYFTLTISSVQAEDLAVYYCQNNYIYPLAFGTGTKLELK
On to B17, for which, in experiment [2], the “Fluorescence … 20 nM antibody, normalized by DAR” value was 13200 and the “Fluorescence, pHAb internalization on MKN45-CLDN18.2 cells, 100 nM antibody, normalized by DAR” value was 29900.
